Experiments:
[1] = tested on: N-terminal myc-tagged NR1-1a
[2] = biological target: NMDA receptor NR1 subunit in adult rat brain membranes (UniProt P35439)
[3] = biological target: T1, protease-activated receptor 1 (PAR1), mouse, endogenous in hippocampal slices and cultured astrocytes (UniProt P30558)
T1 sequence: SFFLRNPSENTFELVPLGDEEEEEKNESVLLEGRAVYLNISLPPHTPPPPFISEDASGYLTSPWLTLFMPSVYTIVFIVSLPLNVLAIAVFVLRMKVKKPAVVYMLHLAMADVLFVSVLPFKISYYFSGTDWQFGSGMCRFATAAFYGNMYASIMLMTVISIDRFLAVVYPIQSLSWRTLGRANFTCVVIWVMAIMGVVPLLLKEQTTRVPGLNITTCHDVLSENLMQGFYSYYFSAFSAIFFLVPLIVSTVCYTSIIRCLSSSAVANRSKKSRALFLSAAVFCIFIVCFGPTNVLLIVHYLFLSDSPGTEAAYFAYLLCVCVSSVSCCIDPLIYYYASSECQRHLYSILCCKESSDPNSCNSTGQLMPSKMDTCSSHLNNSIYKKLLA

[4] = tested on: recombinant NR1-1b subunit transiently expressed in HEK 293 cells
[5] = biological target: endogenous plasminogen in mouse brain slices (UniProt P20918)
Chain of endogenous plasminogen in mouse brain slices (P20918 20-812): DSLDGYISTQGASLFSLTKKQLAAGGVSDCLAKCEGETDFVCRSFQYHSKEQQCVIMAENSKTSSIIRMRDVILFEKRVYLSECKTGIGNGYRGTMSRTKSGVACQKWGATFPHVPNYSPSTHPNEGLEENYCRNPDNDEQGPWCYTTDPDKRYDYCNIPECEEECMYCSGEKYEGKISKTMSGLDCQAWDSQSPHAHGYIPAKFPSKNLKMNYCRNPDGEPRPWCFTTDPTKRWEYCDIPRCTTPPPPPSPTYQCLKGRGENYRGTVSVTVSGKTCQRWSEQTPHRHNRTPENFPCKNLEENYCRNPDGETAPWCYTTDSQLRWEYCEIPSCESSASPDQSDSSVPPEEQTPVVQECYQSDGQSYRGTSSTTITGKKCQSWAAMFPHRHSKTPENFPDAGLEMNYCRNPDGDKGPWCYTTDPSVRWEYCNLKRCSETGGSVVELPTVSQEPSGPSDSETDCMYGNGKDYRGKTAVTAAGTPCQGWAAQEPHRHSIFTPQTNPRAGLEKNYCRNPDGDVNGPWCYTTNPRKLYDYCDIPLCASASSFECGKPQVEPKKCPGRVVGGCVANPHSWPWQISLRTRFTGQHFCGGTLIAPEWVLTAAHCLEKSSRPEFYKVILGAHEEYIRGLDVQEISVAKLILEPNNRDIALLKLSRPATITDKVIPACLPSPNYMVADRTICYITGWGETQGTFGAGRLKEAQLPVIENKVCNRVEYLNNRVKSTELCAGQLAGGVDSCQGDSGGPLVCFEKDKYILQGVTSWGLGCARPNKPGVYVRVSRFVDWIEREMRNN

Chain of tissue plasminogen activator (P00750 36-562): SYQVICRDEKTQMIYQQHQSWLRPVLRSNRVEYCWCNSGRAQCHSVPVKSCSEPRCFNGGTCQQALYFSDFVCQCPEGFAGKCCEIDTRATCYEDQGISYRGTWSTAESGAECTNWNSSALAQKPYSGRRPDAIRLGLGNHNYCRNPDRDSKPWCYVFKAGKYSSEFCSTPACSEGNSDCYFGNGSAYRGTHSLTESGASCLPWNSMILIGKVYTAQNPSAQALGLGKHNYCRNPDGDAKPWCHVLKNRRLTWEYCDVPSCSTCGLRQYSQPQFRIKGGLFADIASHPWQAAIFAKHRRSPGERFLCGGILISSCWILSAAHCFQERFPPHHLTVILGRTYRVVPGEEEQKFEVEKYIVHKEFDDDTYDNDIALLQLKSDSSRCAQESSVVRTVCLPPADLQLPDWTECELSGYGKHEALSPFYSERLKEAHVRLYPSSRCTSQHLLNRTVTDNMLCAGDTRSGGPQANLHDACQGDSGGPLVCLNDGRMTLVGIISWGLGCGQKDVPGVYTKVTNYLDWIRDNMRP

Substance	proteolysis of myc-tagged NR1-1a (immunoblot) [1]	NR1 cleavage product in CA1 region after 15 minutes of 3 U/ml thrombin on slices [2]	maximal percent of NR1 cleaved, striatal membranes [2]	percent of NR1 cleaved, all brain regions except striatum, 1-3 micromolar thrombin [2]	percent of NR1 cleaved, cerebellar, cortical and brainstem membranes, 300 nM thrombin [2]	percent of NR1 cleaved, hippocampal membranes, 30 nM thrombin [2]	percent of NR1 cleaved, striatal membranes, 30 nM thrombin [2]	proteolysis of NR1 (immunoblot) [2]	PI hydrolysis in hippocampal slices [3]	proteolysis of recombinant NR1-1b (immunoblot) [4]	PI hydrolysis after tPA application to hippocampal slices [3]	PI hydrolysis in hippocampal slices [5]
alpha-thrombin	Thrombin induced a similar shift in molecular weight for N-terminal myc-tagged NR1 as observed for the recombinant and native receptors detected with mAb54.1	no NR1 cleavage product was observed in immunoblots of membranes obtained from the CA1 region microdissected immediately following the experiment	the maximal observed cleavage of 52% suggests a thrombin resistant population of NR1 subunits exists	1-3 micromolar thrombin cleaved 100% or subunits in all brain regions except striatum	cerebellar (n=7), cortical (n=5), and brainstem (n=5) NR1 subunits were insensitive to cleavage by 300 nM thrombin (30 U/ml)	30 nM thrombin (3 U/ml) cleaved 20% of the NR1 subunit in hippocampal membranes (n=7)	50% of NR1 in striatal membranes (n=10)	Incubation of brain membranes with thrombin for 1 hour at 37 °C resulted in the appearance of a new band that was 12 kD (n=10) lower in molecular weight than the parent band	Both thrombin and plasmin increased PI hydrolysis in wild type hippocampus, but not in the hippocampus of PAR1-/- mice	10-1000 U/ml of thrombin cleaved both homomeric NR1-1b receptors (n=9/10 experiments) and heteromeric NR1-1b/NR2B receptors (n=6/6 experiments)	–	–
plasmin	–	–	–	–	–	–	–	–	Both thrombin and plasmin increased PI hydrolysis in wild type hippocampus, but not in the hippocampus of PAR1-/- mice	–	Application of tPA to wild type hippocampal slices significantly increased PI hydrolysis compared with application to PAR1-/-hippocampal slices	–
tissue plasminogen activator	–	–	–	–	–	–	–	–	–	–	–	application of tPA did not increase PI hydrolysis in plasminogen-deficient mice
